Results: paper doi:10.1101/2020.03.30.016147

Columns and labels:
[1] = target: C4BP-ANG1 (human) (UniProt P04003); test: non-reducing SDS-PAGE
[2] = target: C4BP-ANG1 (human) (UniProt P04003); test: negative-stain electron microscopy
[3] = target: ANG1-C4BP (human) (UniProt Q15389); test: non-reducing SDS-PAGE

stoichiometry N [1]	stoichiometry N [2]	stoichiometry N [3]	Substance
7	7	–	C4BP-ANG1 (from UniProt P04003 541-597; Q15389-1 281-498) (ligand)
–	–	7	ANG1-C4BP (from UniProt Q15389-1 281-498; P04003 541-597) (ligand)
